According to patent US20110142851A1 (EMERGENT PRODUCT DEVELOPMENT SEATTLE, published 2011):
Read-outs that look alike come from different tables or passages of the source.

T1: hu HIL6 AFH monomer (human)
T1 chain: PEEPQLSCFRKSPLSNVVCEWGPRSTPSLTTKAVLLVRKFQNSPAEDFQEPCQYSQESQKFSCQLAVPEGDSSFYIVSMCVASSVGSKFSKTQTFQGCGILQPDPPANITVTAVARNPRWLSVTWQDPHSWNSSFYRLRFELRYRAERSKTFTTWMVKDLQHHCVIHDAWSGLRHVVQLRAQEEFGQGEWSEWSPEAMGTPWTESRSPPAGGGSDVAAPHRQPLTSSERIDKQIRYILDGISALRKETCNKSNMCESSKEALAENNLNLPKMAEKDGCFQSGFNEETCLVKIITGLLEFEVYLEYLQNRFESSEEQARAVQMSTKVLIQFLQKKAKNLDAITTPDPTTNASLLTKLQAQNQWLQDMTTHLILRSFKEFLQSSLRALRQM

T2: hu HIL6 Fc dimer (dimeric human HIL6/mouse IgG Fc fusion protein) (human)
T2 construct: also called human hyper-IL6 (IL6R-IL6-mIgG); dimeric HIL6
T2 chain: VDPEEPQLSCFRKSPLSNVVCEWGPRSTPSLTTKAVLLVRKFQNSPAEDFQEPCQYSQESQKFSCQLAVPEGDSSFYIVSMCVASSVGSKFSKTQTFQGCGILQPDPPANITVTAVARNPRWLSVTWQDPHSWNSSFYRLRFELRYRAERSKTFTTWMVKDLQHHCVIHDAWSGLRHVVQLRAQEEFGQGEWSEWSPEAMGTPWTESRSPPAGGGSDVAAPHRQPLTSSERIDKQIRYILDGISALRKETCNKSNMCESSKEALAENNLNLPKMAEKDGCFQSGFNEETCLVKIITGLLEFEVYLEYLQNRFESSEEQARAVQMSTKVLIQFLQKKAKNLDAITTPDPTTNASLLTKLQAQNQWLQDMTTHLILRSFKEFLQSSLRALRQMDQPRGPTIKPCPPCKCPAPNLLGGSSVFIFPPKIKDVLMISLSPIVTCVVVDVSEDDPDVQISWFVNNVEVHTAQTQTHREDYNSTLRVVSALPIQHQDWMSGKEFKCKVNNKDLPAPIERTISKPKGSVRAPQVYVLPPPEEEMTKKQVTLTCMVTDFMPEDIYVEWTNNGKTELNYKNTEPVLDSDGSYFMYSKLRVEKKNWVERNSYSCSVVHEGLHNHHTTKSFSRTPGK

T3: sIL6R Fc dimer (UniProt P08887 20-358, limits assumed)
T3 construct: not shown: Fc
T3 sequence (looked up): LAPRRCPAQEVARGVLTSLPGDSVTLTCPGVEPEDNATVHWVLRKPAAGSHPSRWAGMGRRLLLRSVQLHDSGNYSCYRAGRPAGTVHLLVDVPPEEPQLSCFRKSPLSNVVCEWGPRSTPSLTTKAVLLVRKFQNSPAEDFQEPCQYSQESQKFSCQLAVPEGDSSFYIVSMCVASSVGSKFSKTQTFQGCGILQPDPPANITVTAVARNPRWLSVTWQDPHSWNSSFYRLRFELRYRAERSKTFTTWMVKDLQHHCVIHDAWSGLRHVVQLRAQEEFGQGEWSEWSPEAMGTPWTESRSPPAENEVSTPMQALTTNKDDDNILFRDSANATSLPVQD

B1: recombinant human soluble IL6 receptor (receptor)
chain: T3 sequence (looked up)
notes: also called sIL6R; sIL-6R
B2: TRU(XT6)-1002 (Fc fusion)
chain: LPAQVAFTPYAPEPGSTCRLREYYDQTAQMCCSKCSPGQHAKVFCTKTSDTVCDSCEDSTYTQLWNWVPECLSCGSRCSSDQVETQACTREQNRICTCRPGWYCALSKQEGCRLCAPLRKCRPGFGVARPGTETSDVVCKPCAPGTFSNTTSSTDICRPHQICNVVAIPGNASMDAVCTSTSPTRSMAPGAVHLPQPVSTRSQHTQPTPEPSTAPSTSFLLPMGPSPPAEGSTGDTGEPKSSDKTHTCPPCPAPEAAGAPSVFLFPPKPKDTLMISRTPEVTCVVVDVSHEDPEVKFNWYVDGVEVHNAKTKPREEQYNSTYRVVSVLTVLHQDWLNGKAYACAVSNKALPAPIEKTISKAKGQPREPQVYTLPPSRDELTKNQVSLTCLVKGFYPSDIAVEWESNGQPENNYKTTPPVLDSDGSFFLYSKLTVDKSRWQQGNVFSCSVMHEALHNHYTQKSLSLSPGQRHNNSSLNTRTQKARHSPNSEVQLLESGGGLVQPGGSLRLSCAASGFTFSFYQMHWVRQAPGKGLEWVSGIYPSGGYTKYADSVKGRFTISRDNSKNTLYLQMNSLRAEDTAVYYCARDLGYGSSWYYFDYWGQGTLVTVSSGGGGSGGGGSGGGGSQSALTQPASVSGSPGQSITISCSGTDSDVGGYNHVSWYQQHPGKAPKLIIYDVDHRPSGISNRFSGSKSGNTASLTISGLQAEDEADYYCSSYRSGSTYVFGTGTKVTVL
notes: The entry holds a signal peptide that the mature protein lacks
B3: TRU(XT6)-1006 (Fc fusion)
chain: LPAQVAFTPYAPEPGSTCRLREYYDQTAQMCCSKCSPGQHAKVFCTKTSDTVCDSCEDSTYTQLWNWVPECLSCGSRCSSDQVETQACTREQNRICTCRPGWYCALSKQEGCRLCAPLRKCRPGFGVARPGTETSDVVCKPCAPGTFSNTTSSTDICRPHQICNVVAIPGNASMDAVCTSTSPTRSMAPGAVHLPQPVSTRSQHTQPTPEPSTAPSTSFLLPMGPSPPAEGSTGDTGEPKSSDKTHTCPPCPAPEAAGAPSVFLFPPKPKDTLMISRTPEVTCVVVDVSHEDPEVKFNWYVDGVEVHNAKTKPREEQYNSTYRVVSVLTVLHQDWLNGKAYACAVSNKALPAPIEKTISKAKGQPREPQVYTLPPSRDELTKNQVSLTCLVKGFYPSDIAVEWESNGQPENNYKTTPPVLDSDGSFFLYSKLTVDKSRWQQGNVFSCSVMHEALHNHYTQKSLSLSPGQRHNNSSLNTRTQKARHSPNSEVQLLESGGGLVQPGGSLRLSCAASGFTFSQYNMIWVRQAPGKGLEWVSWISSSGGTEYADSVKGRFTISRDNSKNTLYLQMNSLRAEDTAVYYCAKDRGYGSGSYGAYDAFDIWGQGTMVTVSSGGGGSGGGGSGGGGSQDIQMTQSPSSLSASVGDRVTITCQTSQSIDRYLNWYQQKAGEAPKLLIYAASSLQSGVPSRFSGSGSGTDFTLTISSLQPEDFASYYCQQSYRTPRTFGQGTKVEIK
notes: Xceptor, TNFRSF1B ectodomain N-terminal, anti-IL6xR domain C-terminal
B4: TRU(S6)-1019 (Fc fusion)
chain: EVQLLESGGGLVQPGGSLRLSCAASGFTFSWYLMHWVRQAPGKGLEWVSGIWPSGGHTLYADSVKGRFTISRDNSKNTLYLQMNSLRAEDTAVYYCAREPLLWFGELSYNWFDPWGQGTLVTVSSGGGGSGGGGSGGGGSQDIQMTQSPSSVSASVGDRVTITCRASQGISSWLAWYQQKPGKAPKLLIYAASSLQSGVPSRFSGSGSGTDFTLTISSLQPEDFATYYCQQANSFPLTFGGGTKVEIKTGEPKSSDKTHTCPPCPAPEAAGAPSVFLFPPKPKDTLMISRTPEVTCVVVDVSHEDPEVKFNWYVDGVEVHNAKTKPREEQYNSTYRVVSVLTVLHQDWLNGKAYACAVSNKALPAPIEKTISKAKGQPREPQVYTLPPSRDELTKNQVSLTCLVKGFYPSDIAVEWESNGQPENNYKTTPPVLDSDGSFFLYSKLTVDKSRWQQGNVFSCSVMHEALHNHYTQKSLSLSPGK
notes: SMIP (scFv - linker - CH2CH3)

Legend:
TRU(XT6)-1042 = biological target: T4, TRU(XT6)-1042; assay: ELISA, Xceptor captured by anti-human Fc
T4 construct: Xceptor, TNFRSF1B ectodomain N-terminal, anti-IL6xR domain C-terminal

[1] = biological target: B1; assay: ELISA, Xceptor captured by anti-human Fc
hu HIL6 AFH monomer [2] = biological target: T1, hu HIL6 AFH monomer; assay: SPR Biacore T100, binder captured by anti-human Fc
[3] = biological target: T2, hu HIL6 Fc dimer (dimeric human …); assay: SPR Biacore T100, binder captured by anti-human Fc
recombinant human TNF-α [4] = biological target: T5, recombinant human TNF-α (human, UniProt P01375 77-233); assay: SPR Biacore T100, binder captured by anti-human Fc
T5 construct: also called rhTNFα

sIL6R Fc dimer [5] = biological target: T3, sIL6R Fc dimer; assay: SPR Biacore T100, binder captured by anti-human Fc
recombinant human TNF-α [6] = biological target: T5, recombinant human TNF-α; assay: sandwich ELISA, HIL-6 coated, Xceptor, then TNF-α
Description: The plate was covered, and incubated overnight at 4° C. […] The absorbance of each well was read at 450 nm.

hu HIL6 AFH monomer [7] = biological target: T1, hu HIL6 AFH monomer; assay: SPR Biacore T100, binder captured by anti-human Fc
Description: (§1) Binding affinities and kinetic rate constants of interaction of hyper-IL6 (HIL6; monomer or dimer), and its components IL6 and sIL6R, with different anti-HIL6 binding domains in scFv, SMIP, Xceptor and reverse Xceptor formats were determined using a Biacore® T100 instrument (GE Healthcare, Piscataway, N.J.).
(§2) Anti-HIL6 SMIPS, Xceptors, and reverse Xceptors were captured by a monoclonal mouse anti-human Fc, which was covalently conjugated to a carboxylmethyl dextran (CM4) surface via amines using N-ethyl-N′-(3-dimethylaminopropyl)-carbodiimide hydrochloride and N-hydroxysuccinimide. The unoccupied sites of the activated surface were blocked by ethanolamine. […] In every cycle, three different HIL6 binders were captured on flow cells 2, 3 and 4, while flow cell 1 was used as the reference cell. For each cycle, a single concentration of a single HIL6-related molecule was injected for 150 seconds at 35 microliters per minute, and then allowed to dissociate for 300 seconds. At the end of the cycle, the surface was regenerated gently using 3M MgCl₂, which dissociates protein bound to anti-hFc capture antibody. Multiple cycles were performed to study binding of monomeric or dimeric HIL6 at different concentrations, in the range of 0-100 nM, for each set of three HIL6 binders captured. […] The experiment was performed at 25° C. Signal associated with binding to the reference cell was used to subtract for bulk refractive changes and blank (buffer-only) injections were used to correct for drift and system noise. The kinetic parameters and affinities were determined using BIAevaluation software. Anti-HIL6 scFv molecules were analyzed in the reverse orientation using a dimeric human HIL6/mouse IgG Fc fusion protein captured by an immobilized rabbit polyclonal anti-mouse IgG Fc antibody on the surface and injecting different concentrations of scFv over the surface. For the HIL6 components IL6 (eBioscience, catalog no. 14-8069) and sIL6R, a single 100 nM injection was performed to obtain a qualitative assessment of binding.

[8] = biological target: T2, hu HIL6 Fc dimer (dimeric human …); assay: SPR Biacore T100, binder captured by anti-human Fc
Description: as §1, §2

sIL6R Fc dimer [9] = biological target: T3, sIL6R Fc dimer; assay: SPR Biacore T100, binder captured by anti-human Fc; remark: listed apart in the source
Description: as §1, §2

recombinant human IL6 = biological target: T6, recombinant human IL6 (human, UniProt P05231 30-212); assay: SPR Biacore T100, binder captured by anti-human Fc
T6 construct: also called rhIL6; IL6 monomer

T5 sequence (P01375 77-233 limits assumed): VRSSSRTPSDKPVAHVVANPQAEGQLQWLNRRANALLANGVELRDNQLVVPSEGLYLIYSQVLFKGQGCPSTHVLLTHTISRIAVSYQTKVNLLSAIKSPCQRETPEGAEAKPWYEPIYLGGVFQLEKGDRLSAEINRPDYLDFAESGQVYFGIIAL

Binder: B1
- binding result (TRU(XT6)-1042): no binding (tested: 75 pM sIL-6R)

Binder: B2
- binding result [1]: no binding (tested: 75 pM sIL-6R)
- Kd (hu HIL6 AFH monomer [2]): 4.9 nM
- Kd [3]: 61 nM
- Kd (recombinant human TNF-α [4]): 3.1 pM
- binding result (sIL6R Fc dimer [5]): no binding (tested: 100 nM)

Binder: B3
- binding result (recombinant human TNF-α [6]): binds

Binder: B4
- Kd (hu HIL6 AFH monomer [7]): 2 nM
- Kd [8]: 2.7 nM
- binding result (sIL6R Fc dimer [9]): no binding (tested: 100 nM)
- Kd (recombinant human IL6): 0.44 nM
